system: MS2 coat protein; assay: apparent KD of MS2 coat protein; higher = weaker reporter binding; conditions: Eterna round: R107; input ligand: none
Method in brief: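 Illumina sequencing clusters served as templates for on-chip transcription of the designed RNA switches. SNAP-549-labelled MS2 coat protein was then titrated in twofold steps from 0.7 or 1.5 nM to 3 µM, allowing 0.8–1.5 h per step at first and 10–20 min per step later. The buffer held 100 mM Tris-HCl pH 7.5, 80 mM KCl and 4 mM MgCl2, without or with constant ligand. Apparent KD is the median per design of normalised cluster binding-curve fits.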

Compared with “UCCUCCUCCGCAAGGAGGAGGAGUUGCGAUACCAGCCCGGAAACGGGCCCUUGGCAGCGCACAUGAGGAUCACCCAUGUCAUGUU [#1 Exclusion - Theophylline A Attempt #8 (HarryS)]”, “AUGCGGUGCGGAAGGAGCGAGUUUGCCUAUUUACAUGAGGAUCACCCAUGUCCUAAUGGGACUCAGGUAGGUCGCCGUUGUCGCA [Same State Arginine B GF 29]” is 2.5-fold higher in “apparent KD of MS2 coat protein” value: 18.1 nM for the first, 45.5 nM for the second.

Going from “UAUAUAUAGGCGGCCGCCACUGAUUUUCAUAUAUAUAUAACAUGAGGAUCACCCAUGUAGAUAUACAGGACCGGGCCUAUAUAUA [aaaA]” to “UCGGGCCUUCUUUCUUGGCCCGUUACAGAAGGAGCGUCGGAAAUGACAGGUAGGUCGCUGAGAACAUGAGGAUCACCCAUGUAUU [SSAA #14]”, the “apparent KD of MS2 coat protein” value rises from 16.1 nM to 26.4 nM (1.6-fold).

First: AAGGGACAUGAGGAUCACCCAUGUACCGAAGGAGCGGCAGAGAUGCCAGGUAGGUCGCGGUACUUGCCGGGUCAUUCAUGCAAAA [Teanbe]
Second: GGUUGGUGUAGAGAUAUAUUGAUUACUGAAGGAGCGGGACGAAACCCAGGUAGGUCGCAGAGAUCCACAUGAGGAUCACCCAUGU [!0.M]
The “apparent KD of MS2 coat protein” value of the first is 2.5-fold lower: 18.8 nM for the first, 46.1 nM for the second.

“CUCUGAGUCCGUAAGGACUCAGAGGCGGAUACCAGCGAGGUCCAUCGCCCUUGGCAGCCGAACAUGAGGAUCACCCAUGUCGGUA [#1 Same State - Theophylline A Attempt #25 (HarryS)]” and “ACAUGAGGAUCACCCAUGUUUGUUGUUCCUCGAGGACCGGUACGGCCGCCACUCGAACGAGUGGCGCGCGAGUGCGCACUCGCGC [aOa]” are within 1.5-fold of each other in “apparent KD of MS2 coat protein” value: 9.76 nM for the first, 11.9 nM for the second.

Going from “ACACGAAGCUGAAGGAGCGUGGUAUAAUUUUUUACAUGAGGAUCACCCAUGUCUCAUUUUUCACAGGUAGGUCGCAGAUGCGUGA [JR_SSArginiB_Sub015]” to “GGUAGACGGACGGCCGCCACUCACAUGAGGAUCACCCAUGUAUAGUUGGUAAUCUGGGUUCAGGAGAGGACCGGGUCCUUGUCAG [theeternabot_exclusion_MS2_Trp_B_43]”, the “apparent KD of MS2 coat protein” value falls from 71.5 nM to 18.4 nM (3.9-fold).

Compared with “AUUCAGAGAUCACAUGAGGAUCACCCAUGUCGAGGACCGGUACGGCCGCCACUCGCGGCGGUGAAAAUAGAUACAAAGUAUCUAU [Ex_TrypA - Vienna approves #2]”, “ACAUGAGGAUCACCCAUGUACAUGAGGGAAGGAGCGGUACAUGAGCCAGGUAGGUCGCCCAACAGCAAAUGGCAUGUACAACGGA [hhnmullin]” is 1.6-fold higher in “apparent KD of MS2 coat protein” value: 50 nM for the first, 78.4 nM for the second.

“GAGCGCGUGGACUGGCGUGCUCCGCUCCGUCGAGGACCGGUACGGCCGCCACUCGACAUGAGGAUCACCCAUGUGCGCGCUCGCU [#1 Exclusion - Tryptophan A Attempt #23 (HarryS)]” and “GCCGCGGCCGCGAUACACAUGGGUGUGUAACGAGGACCGGUACGGCCGCCACUCGAGAUGGCACAUGAGGAUCACCCAUGUGUGC [Exclusion Tryp A GF16]” are within 1.5-fold of each other in “apparent KD of MS2 coat protein” value: 27 nM for the first, 24.1 nM for the second.

“GGCACGUACGGAAGGAGCGACUGUUCAACGUGGGUACAUGAGGAUCACCCAUGUCUCCGCAGUCAGGUAGGUCGCCGUACGUGCC [EAB NP+V+V2 #20]” and “ACAUGAGGAUCACCCAUGUGCCGUCUUGAUACCAGACCCGAAGUAGUCCCUUGGCAGCAACUACGUGAGGGUCGCCCAUGUGUAG [5kullin]” are within 1.5-fold of each other in “apparent KD of MS2 coat protein” value: 12.2 nM for the first, 14.5 nM for the second.

“AGCACUGUGACGGCCGCCACUAUAUUAGGGUGGUAAGGUUCAUAAAUACAUGAGGAUCACCCAUGUAGGACCGGGUCUCAGUGCA [Omei Trp Exc B A v2]” and “ACUUGAUACUGAAGGAGCGUCGGAUAAACUCGCACAUGAGGAUCACCCAUGUAUAUGAAUCGGCAGGUAGGUCGCAGUAUCGAGU [#21 Same State - Arginine B]” are within 1.5-fold of each other in “apparent KD of MS2 coat protein” value: 12.6 nM for the first, 15.6 nM for the second.

“CCUUAAUAUAGAAGGAGCGCGCUAACAUGAGGAUCACCCAUGUAAAGGGUUUUGGGCUUAGCGCAGGUAGGUCGCUAUAAGAACC [Arg B Ex t2]” was tested, and the “apparent KD of MS2 coat protein” value was 106 nM.

same assay, conditions: Eterna round: R107; input ligand: theophylline 20 uM

First: ACAUGAGGAUCACCCAUGUGGCGUCUUGAUACCAGACCCGCACUAGUCCCUUGGCAGCAACUACGUGAGGGUCGCCCAUGUGUAG [zxdullin]
Second: UCGCAUUGCUGCGAUACCAGACAUGAGGAUCACCCAUGUACCAAGAAAACGUACAUAAAUGUCCCUUGGCAGCGCAGCAAUGCGU [MAT - Exclusion Theophlline B - Mod of Eli - D26]
The “apparent KD of MS2 coat protein” value of the first is 13-fold lower: 50.8 nM for the first, 656 nM for the second.

First: AAACGUUGCUGCGAUACCAGACAUGAGGAUCACCCAUGUACCAAGGUACGAAAAUAACAUGUCCCUUGGCAGCGCAGCAACGAAA [MAT - Exclusion Theophlline B - Mod of Eli - D6]
Second: UCCUCCUCCGCAAGGAGGAGGAGUUGCGAUACCAGCCCGGAAACGGGCCCUUGGCAGCGCACAUGAGGAUCACCCAUGUCAUGUU [#1 Exclusion - Theophylline A Attempt #8 (HarryS)]
The “apparent KD of MS2 coat protein” value of the first is 1.5-fold higher: 29.7 nM for the first, 19.8 nM for the second.

First: ACAUGAGGAUCACCCAUGUCUGCCACUGAUACCAGCGGAUGCCAACGCCCUUGGCAGCAGAACAUGAGGAUCACCCAUGUAGGCA [Same State Theophylline A GF25]
Second: UCCUUAGAUACUGAUACCAGACUACAGUAAACAUGAGGAUCACCCAUGUUUGAUCACUAAGUCCCUUGGCAGCAGGUACAUGGGA [Theo B SS r1]
The “apparent KD of MS2 coat protein” value of the first is 23-fold higher: 303 nM for the first, 12.9 nM for the second.

Going from “AUGCGGUGCGGAAGGAGCGAGUUUGCCUAUUUACAUGAGGAUCACCCAUGUCCUAAUGGGACUCAGGUAGGUCGCCGUUGUCGCA [Same State Arginine B GF 29]” to “UAUAUAUAGGCGGCCGCCACUGAUUUUCAUAUAUAUAUAACAUGAGGAUCACCCAUGUAGAUAUACAGGACCGGGCCUAUAUAUA [aaaA]”, the “apparent KD of MS2 coat protein” value falls from 65.5 nM to 16.5 nM (4-fold).

Going from “UCGGGCCUUCUUUCUUGGCCCGUUACAGAAGGAGCGUCGGAAAUGACAGGUAGGUCGCUGAGAACAUGAGGAUCACCCAUGUAUU [SSAA #14]” to “AUACCUAUUGAGUCGUGUUUCUAUUCAGAUACCAGACUUUUCGUUGUCCCUUGGCAGCUGUUUUACAUGAGGAUCACCCAUGUUG [JR_ExcTheophyA_Sub006]”, the “apparent KD of MS2 coat protein” value falls from 28.9 nM to 18.3 nM (1.6-fold).

Compared with “AAGGGACAUGAGGAUCACCCAUGUACCGAAGGAGCGGCAGAGAUGCCAGGUAGGUCGCGGUACUUGCCGGGUCAUUCAUGCAAAA [Teanbe]”, “UUUAGUCAAUCGGCCGCCACUGACAUGAGGAUCACCCAUGUAGGUAAGGAUCAACCUCGAAAGUACAGGACCGGGAUUCGCCUCU [theeternabot_exclusion_MS2_Trp_B_45]” is 2.9-fold higher in “apparent KD of MS2 coat protein” value: 23.5 nM for the first, 67.6 nM for the second.

Compared with “GGUUGGUGUAGAGAUAUAUUGAUUACUGAAGGAGCGGGACGAAACCCAGGUAGGUCGCAGAGAUCCACAUGAGGAUCACCCAUGU [!0.M]”, “CUCUGAGUCCGUAAGGACUCAGAGGCGGAUACCAGCGAGGUCCAUCGCCCUUGGCAGCCGAACAUGAGGAUCACCCAUGUCGGUA [#1 Same State - Theophylline A Attempt #25 (HarryS)]” is 3.7-fold lower in “apparent KD of MS2 coat protein” value: 46.6 nM for the first, 12.6 nM for the second.

Compared with “ACAUGAGGAUCACCCAUGUUUGUUGUUCCUCGAGGACCGGUACGGCCGCCACUCGAACGAGUGGCGCGCGAGUGCGCACUCGCGC [aOa]”, “ACGUCAACCCUUAUGUUGAUGCAAGACGAUACCAGCCUGGAUACAGGCCCUUGGCAGCGUCAACAUGAGGAUCACCCAUGUAAUA [(T)''-(MT)'-(Theo)-(Ms2)]” is 14-fold higher in “apparent KD of MS2 coat protein” value: 18 nM for the first, 261 nM for the second.

“ACACGAAGCUGAAGGAGCGUGGUAUAAUUUUUUACAUGAGGAUCACCCAUGUCUCAUUUUUCACAGGUAGGUCGCAGAUGCGUGA [JR_SSArginiB_Sub015]” and “AUUGCGAGUGAGUCGUGUAACGAUUCAGAUACCAGGCAUUUCGUUGUCCCUUGGCAGCUGUCUUACAUGAGGAUCACCCAUGUUA [#29 Exclusion-TheophyllineA]” are within 1.5-fold of each other in “apparent KD of MS2 coat protein” value: 81.6 nM for the first, 54.8 nM for the second.
